{"source": "the Human Domainome abundance scans (Beltran et al. 2025)", "note": "± gives the uncertainty stated by the source.", "data": [{"assay": "abundance fitness (aPCA) (normalised: wild type 0, dead -1); higher = more abundant; growth selection in yeast, the domain comes from the species named", "conditions": "Homo sapiens", "values": [{"substance": "E3 ubiquitin-protein ligase NEDD4-like S231I, Q96PU5", "abundance fitness": "0.087 ± 0.12"}, {"substance": "E3 ubiquitin-protein ligase NEDD4-like R217G, Q96PU5", "abundance fitness": "-0.005 ± 0.054"}, {"substance": "E3 ubiquitin-protein ligase NEDD4-like H186M, Q96PU5", "abundance fitness": "-0.349 ± 0.1"}, {"substance": "E3 ubiquitin-protein ligase NEDD4-like N215A, Q96PU5", "abundance fitness": "-0.029 ± 0.072"}, {"substance": "E3 ubiquitin-protein ligase NEDD4-like R223Y, Q96PU5", "abundance fitness": "-0.41 ± 0.1"}, {"substance": "E3 ubiquitin-protein ligase NEDD4-like T218G, Q96PU5", "abundance fitness": "-0.146 ± 0.061"}, {"substance": "E3 ubiquitin-protein ligase NEDD4-like S231T, Q96PU5", "abundance fitness": "0.139 ± 0.098"}, {"substance": "E3 ubiquitin-protein ligase NEDD4-like H186V, Q96PU5", "abundance fitness": "-0.045 ± 0.058"}, {"substance": "E3 ubiquitin-protein ligase NEDD4-like E232H, Q96PU5", "abundance fitness": "-0.574 ± 0.18"}, {"substance": "E3 ubiquitin-protein ligase NEDD4-like P197K, Q96PU5", "abundance fitness": "0.267 ± 0.094"}, {"substance": "E3 ubiquitin-protein ligase NEDD4-like M227Q, Q96PU5", "abundance fitness": "-0.068 ± 0.1"}, {"substance": "E3 ubiquitin-protein ligase NEDD4-like Y211I, Q96PU5", "abundance fitness": "-0.601 ± 0.065"}, {"substance": "E3 ubiquitin-protein ligase NEDD4-like L206S, Q96PU5", "abundance fitness": "0.065 ± 0.054"}, {"substance": "E3 ubiquitin-protein ligase NEDD4-like K202F, Q96PU5", "abundance fitness": "-0.49 ± 0.11"}, {"substance": "E3 ubiquitin-protein ligase NEDD4-like H214R, Q96PU5", "abundance fitness": "-0.005 ± 0.068"}, {"substance": "E3 ubiquitin-protein ligase NEDD4-like D228T, Q96PU5", "abundance fitness": "0.042 ± 0.076"}, {"substance": "E3 ubiquitin-protein ligase NEDD4-like V203Y, Q96PU5", "abundance fitness": "-0.227 ± 0.11"}, {"substance": "E3 ubiquitin-protein ligase NEDD4-like E201P, Q96PU5", "abundance fitness": "-0.255 ± 0.091"}, {"substance": "E3 ubiquitin-protein ligase NEDD4-like S230Y, Q96PU5", "abundance fitness": "-0.204 ± 0.12"}, {"substance": "E3 ubiquitin-protein ligase NEDD4-like N213L, Q96PU5", "abundance fitness": "-0.709 ± 0.1"}, {"substance": "E3 ubiquitin-protein ligase NEDD4-like N205V, Q96PU5", "abundance fitness": "-0.232 ± 0.068"}, {"substance": "E3 ubiquitin-protein ligase NEDD4-like P192F, Q96PU5", "abundance fitness": "-0.296 ± 0.075"}, {"substance": "E3 ubiquitin-protein ligase NEDD4-like W221G, Q96PU5", "abundance fitness": "-0.219 ± 0.063"}, {"substance": "E3 ubiquitin-protein ligase NEDD4-like H222D, Q96PU5", "abundance fitness": "0.071 ± 0.067"}, {"substance": "E3 ubiquitin-protein ligase NEDD4-like R217N, Q96PU5", "abundance fitness": "0.051 ± 0.089"}, {"substance": "E3 ubiquitin-protein ligase NEDD4-like Y211H, Q96PU5", "abundance fitness": "-0.77 ± 0.12"}, {"substance": "E3 ubiquitin-protein ligase NEDD4-like V229C, Q96PU5", "abundance fitness": "-0.203 ± 0.084"}, {"substance": "E3 ubiquitin-protein ligase NEDD4-like E232P, Q96PU5", "abundance fitness": "0.216 ± 0.17"}, {"substance": "E3 ubiquitin-protein ligase NEDD4-like V229L, Q96PU5", "abundance fitness": "0.057 ± 0.056"}, {"substance": "E3 ubiquitin-protein ligase NEDD4-like H222N, Q96PU5", "abundance fitness": "-0.027 ± 0.11"}, {"substance": "E3 ubiquitin-protein ligase NEDD4-like N205A, Q96PU5", "abundance fitness": "-0.057 ± 0.06"}, {"substance": "E3 ubiquitin-protein ligase NEDD4-like N216C, Q96PU5", "abundance fitness": "-0.09 ± 0.098"}, {"substance": "E3 ubiquitin-protein ligase NEDD4-like P194K, Q96PU5", "abundance fitness": "0.071 ± 0.063"}, {"substance": "E3 ubiquitin-protein ligase NEDD4-like L226G, Q96PU5", "abundance fitness": "-0.117 ± 0.057"}, {"substance": "E3 ubiquitin-protein ligase NEDD4-like G207R, Q96PU5", "abundance fitness": "-0.252 ± 0.051"}, {"substance": "E3 ubiquitin-protein ligase NEDD4-like R217Q, Q96PU5", "abundance fitness": "-0.016 ± 0.067"}, {"substance": "E3 ubiquitin-protein ligase NEDD4-like V212P, Q96PU5", "abundance fitness": "-0.485 ± 0.11"}, {"substance": "E3 ubiquitin-protein ligase NEDD4-like D228F, Q96PU5", "abundance fitness": "-0.329 ± 0.11"}, {"substance": "E3 ubiquitin-protein ligase NEDD4-like D204M, Q96PU5", "abundance fitness": "-0.751 ± 0.075"}, {"substance": "E3 ubiquitin-protein ligase NEDD4-like P191M, Q96PU5", "abundance fitness": "-0.378 ± 0.057"}, {"substance": "E3 ubiquitin-protein ligase NEDD4-like W199D, Q96PU5", "abundance fitness": "-0.744 ± 0.1"}, {"substance": "E3 ubiquitin-protein ligase NEDD4-like P191W, Q96PU5", "abundance fitness": "-0.378 ± 0.058"}, {"substance": "E3 ubiquitin-protein ligase NEDD4-like N205T, Q96PU5", "abundance fitness": "0.029 ± 0.092"}, {"substance": "E3 ubiquitin-protein ligase NEDD4-like R223N, Q96PU5", "abundance fitness": "-0.082 ± 0.088"}, {"substance": "E3 ubiquitin-protein ligase NEDD4-like H186E, Q96PU5", "abundance fitness": "-1.69 ± 0.14"}, {"substance": "E3 ubiquitin-protein ligase NEDD4-like P196D, Q96PU5", "abundance fitness": "-0.231 ± 0.08"}, {"substance": "E3 ubiquitin-protein ligase NEDD4-like P194L, Q96PU5", "abundance fitness": "-0.094 ± 0.054"}, {"substance": "E3 ubiquitin-protein ligase NEDD4-like S230T, Q96PU5", "abundance fitness": "-0.051 ± 0.067"}, {"substance": "E3 ubiquitin-protein ligase NEDD4-like N205G, Q96PU5", "abundance fitness": "-0.321 ± 0.054"}, {"substance": "E3 ubiquitin-protein ligase NEDD4-like H214Y, Q96PU5", "abundance fitness": "0.035 ± 0.088"}, {"substance": "E3 ubiquitin-protein ligase NEDD4-like M227V, Q96PU5", "abundance fitness": "-0.285 ± 0.068"}, {"substance": "E3 ubiquitin-protein ligase NEDD4-like R223F, Q96PU5", "abundance fitness": "-0.461 ± 0.12"}, {"substance": "E3 ubiquitin-protein ligase NEDD4-like N215R, Q96PU5", "abundance fitness": "-0.193 ± 0.063"}, {"substance": "E3 ubiquitin-protein ligase NEDD4-like S225A, Q96PU5", "abundance fitness": "-0.068 ± 0.073"}, {"substance": "E3 ubiquitin-protein ligase NEDD4-like E189I, Q96PU5", "abundance fitness": "0.107 ± 0.13"}, {"substance": "E3 ubiquitin-protein ligase NEDD4-like V203A, Q96PU5", "abundance fitness": "0.023 ± 0.063"}, {"substance": "E3 ubiquitin-protein ligase NEDD4-like P194W, Q96PU5", "abundance fitness": "-0.327 ± 0.076"}, {"substance": "E3 ubiquitin-protein ligase NEDD4-like S225G, Q96PU5", "abundance fitness": "-0.072 ± 0.068"}, {"substance": "E3 ubiquitin-protein ligase NEDD4-like S225I, Q96PU5", "abundance fitness": "-0.038 ± 0.1"}, {"substance": "E3 ubiquitin-protein ligase NEDD4-like E200L, Q96PU5", "abundance fitness": "-0.266 ± 0.08"}, {"substance": "E3 ubiquitin-protein ligase NEDD4-like L226M, Q96PU5", "abundance fitness": "0.011 ± 0.093"}, {"substance": "E3 ubiquitin-protein ligase NEDD4-like V212D, Q96PU5", "abundance fitness": "-0.458 ± 0.094"}, {"substance": "E3 ubiquitin-protein ligase NEDD4-like E200D, Q96PU5", "abundance fitness": "-0.346 ± 0.081"}, {"substance": "E3 ubiquitin-protein ligase NEDD4-like H214S, Q96PU5", "abundance fitness": "-0.035 ± 0.057"}, {"substance": "E3 ubiquitin-protein ligase NEDD4-like P193L, Q96PU5", "abundance fitness": "-0.103 ± 0.055"}, {"substance": "E3 ubiquitin-protein ligase NEDD4-like P193F, Q96PU5", "abundance fitness": "-0.339 ± 0.11"}, {"substance": "E3 ubiquitin-protein ligase NEDD4-like L206P, Q96PU5", "abundance fitness": "-0.707 ± 0.11"}, {"substance": "E3 ubiquitin-protein ligase NEDD4-like V212W, Q96PU5", "abundance fitness": "-0.183 ± 0.083"}, {"substance": "E3 ubiquitin-protein ligase NEDD4-like Y211M, Q96PU5", "abundance fitness": "-0.779 ± 0.11"}, {"substance": "E3 ubiquitin-protein ligase NEDD4-like W199G, Q96PU5", "abundance fitness": "-0.413 ± 0.063"}, {"substance": "E3 ubiquitin-protein ligase NEDD4-like P191D, Q96PU5", "abundance fitness": "-0.086 ± 0.11"}, {"substance": "E3 ubiquitin-protein ligase NEDD4-like P194A, Q96PU5", "abundance fitness": "-0.057 ± 0.066"}, {"substance": "E3 ubiquitin-protein ligase NEDD4-like P196T, Q96PU5", "abundance fitness": "-0.239 ± 0.083"}, {"substance": "E3 ubiquitin-protein ligase NEDD4-like N205K, Q96PU5", "abundance fitness": "0.033 ± 0.097"}, {"substance": "E3 ubiquitin-protein ligase NEDD4-like Q185C, Q96PU5", "abundance fitness": "-0.793 ± 0.065"}, {"substance": "E3 ubiquitin-protein ligase NEDD4-like L190K, Q96PU5", "abundance fitness": "0.08 ± 0.076"}, {"substance": "E3 ubiquitin-protein ligase NEDD4-like W199S, Q96PU5", "abundance fitness": "-0.454 ± 0.067"}, {"substance": "E3 ubiquitin-protein ligase NEDD4-like Q185I, Q96PU5", "abundance fitness": "-0.038 ± 0.11"}, {"substance": "E3 ubiquitin-protein ligase NEDD4-like V229F, Q96PU5", "abundance fitness": "-0.057 ± 0.099"}, {"substance": "E3 ubiquitin-protein ligase NEDD4-like R208D, Q96PU5", "abundance fitness": "0.067 ± 0.098"}, {"substance": "E3 ubiquitin-protein ligase NEDD4-like Y210T, Q96PU5", "abundance fitness": "-0.159 ± 0.072"}, {"substance": "E3 ubiquitin-protein ligase NEDD4-like Q185T, Q96PU5", "abundance fitness": "-0.143 ± 0.1"}, {"substance": "E3 ubiquitin-protein ligase NEDD4-like V203M, Q96PU5", "abundance fitness": "-0.096 ± 0.059"}, {"substance": "E3 ubiquitin-protein ligase NEDD4-like H214L, Q96PU5", "abundance fitness": "-0.05 ± 0.051"}, {"substance": "E3 ubiquitin-protein ligase NEDD4-like H186Y, Q96PU5", "abundance fitness": "-0.095 ± 0.12"}, {"substance": "E3 ubiquitin-protein ligase NEDD4-like L226S, Q96PU5", "abundance fitness": "0.034 ± 0.07"}, {"substance": "E3 ubiquitin-protein ligase NEDD4-like S230E, Q96PU5", "abundance fitness": "-0.034 ± 0.066"}, {"substance": "E3 ubiquitin-protein ligase NEDD4-like N213A, Q96PU5", "abundance fitness": "-0.382 ± 0.071"}, {"substance": "E3 ubiquitin-protein ligase NEDD4-like L190S, Q96PU5", "abundance fitness": "-0.02 ± 0.056"}, {"substance": "E3 ubiquitin-protein ligase NEDD4-like M227I, Q96PU5", "abundance fitness": "-0.135 ± 0.073"}, {"substance": "E3 ubiquitin-protein ligase NEDD4-like G198S, Q96PU5", "abundance fitness": "-0.139 ± 0.057"}, {"substance": "E3 ubiquitin-protein ligase NEDD4-like T209Q, Q96PU5", "abundance fitness": "-0.21 ± 0.095"}, {"substance": "E3 ubiquitin-protein ligase NEDD4-like T218N, Q96PU5", "abundance fitness": "-0.244 ± 0.11"}, {"substance": "E3 ubiquitin-protein ligase NEDD4-like H214W, Q96PU5", "abundance fitness": "-0.068 ± 0.066"}, {"substance": "E3 ubiquitin-protein ligase NEDD4-like S184F, Q96PU5", "abundance fitness": "0.13 ± 0.084"}]}]}
